This passage reports ArfGAP activity (C50: concentration of PZA for 50% GTP hydrolysis in 3 min), fold reduction against wild type, fold reduction of binding against wild type and GAP activity relative to wt PZA (fold of wt PZA) results from paper doi:10.1101/2024.12.20.629688.

Where only a bound is given, the exact number is not on record here.

The target in assay [1] is myristoylated human Arf1, GTP-bound form, anchored on membrane (nanodiscs or LUVs) (human) (UniProt P84077).
For assay [2] the target is unchanged. The experiment in a line: not stated; binding of the K391A mutant, shown in Fig. SI5.
Assay [3] deals with myrArf1 with Glu54 mutated to Ala (human) (UniProt P84077).
Sequence of myrArf1 with Glu54 mutated to Ala (human) (P84077 other isoform, or with tags, fused parts or gaps, change not shown): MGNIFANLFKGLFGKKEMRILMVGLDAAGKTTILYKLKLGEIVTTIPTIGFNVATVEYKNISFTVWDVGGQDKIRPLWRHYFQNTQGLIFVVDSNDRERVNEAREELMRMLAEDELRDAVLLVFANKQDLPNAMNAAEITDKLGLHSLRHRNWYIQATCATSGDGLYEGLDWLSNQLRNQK
Assay [4] has as its target myristoylated human Arf1, GTP-bound form, anchored on membrane (nanodiscs or LUVs) (human) (UniProt P84077). This is another data set of the same source.

Sequence of myristoylated human Arf1, GTP-bound form, anchored on membrane (nanodiscs or LUVs) (human) (P84077 whole entry): as the sequence (P84077 other isoform, or with tags, fused parts or gaps, change not shown) above, with A54E counted along it
Sequence of wt PZA, [325–724]ASAP1 (PH, Arf GAP and ankyrin repeat domains) (Q9QWY8 325-724): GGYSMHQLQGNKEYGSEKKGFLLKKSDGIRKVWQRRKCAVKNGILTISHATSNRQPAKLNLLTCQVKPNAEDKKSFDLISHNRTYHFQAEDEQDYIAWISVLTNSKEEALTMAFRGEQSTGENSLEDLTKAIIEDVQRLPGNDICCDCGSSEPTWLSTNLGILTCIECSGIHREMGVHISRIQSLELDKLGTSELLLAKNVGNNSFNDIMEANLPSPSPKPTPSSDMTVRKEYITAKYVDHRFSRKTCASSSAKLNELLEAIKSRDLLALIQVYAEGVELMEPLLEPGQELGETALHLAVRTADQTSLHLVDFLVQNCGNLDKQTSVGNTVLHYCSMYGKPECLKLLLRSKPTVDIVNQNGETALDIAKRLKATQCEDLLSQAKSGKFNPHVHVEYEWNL
Sequence of PZA with His405 mutated to Glu (Q9QWY8 other isoform, or with tags, fused parts or gaps, change not shown): as the sequence (Q9QWY8 325-724) above, with H81E counted along it
Sequence of ΔN14 PZA (PZA without residues 325–338) (Q9QWY8 339-724, stated change not applied): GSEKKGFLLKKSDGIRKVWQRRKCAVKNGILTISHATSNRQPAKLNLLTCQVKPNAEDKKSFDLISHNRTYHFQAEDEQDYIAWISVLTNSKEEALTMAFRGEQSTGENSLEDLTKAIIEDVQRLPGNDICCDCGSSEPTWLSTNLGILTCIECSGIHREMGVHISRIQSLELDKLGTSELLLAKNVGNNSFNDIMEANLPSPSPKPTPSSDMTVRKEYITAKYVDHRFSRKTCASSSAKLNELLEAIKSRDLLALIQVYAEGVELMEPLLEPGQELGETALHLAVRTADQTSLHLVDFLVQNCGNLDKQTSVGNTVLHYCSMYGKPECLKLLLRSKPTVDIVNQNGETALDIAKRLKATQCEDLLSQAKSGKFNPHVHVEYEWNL
Sequence of PZA with Phe438 mutated to Ala (Q9QWY8 other isoform, or with tags, fused parts or gaps, change not shown): as the sequence (Q9QWY8 325-724) above, with F114A counted along it
Sequence of PZA with Lys391 mutated to Ala (Q9QWY8 other isoform, or with tags, fused parts or gaps, change not shown): as the sequence (Q9QWY8 325-724) above, with K67A counted along it

In assay [1], “PZA with His405 mutated to Glu (from UniProt Q9QWY8 325-724) (domain or fragment)” had an ArfGAP activity (C50: concentration of PZA for 50% GTP hydrolysis in 3 min), fold reduction against wild type of 5 fold.

Turning to “PZA with Lys391 mutated to Ala (from UniProt Q9QWY8 325-724) (domain or fragment)”, the ArfGAP activity (C50: concentration of PZA for 50% GTP hydrolysis in 3 min), fold reduction against wild type in assay [1] is 100 fold.

The substance “ASAP1 PH domain with Lys391 mutated to Ala (from UniProt Q9QWY8 325-451) (domain or fragment)” had a fold reduction of binding against wild type in assay [2] of 2 fold. For “wt PZA, [325–724]ASAP1 (PH, Arf GAP and ankyrin repeat domains) (from UniProt Q9QWY8 325-724) (domain or fragment)”, the ArfGAP activity (C50: concentration of PZA for 50% GTP hydrolysis in 3 min), fold reduction against wild type in assay [3] is 70 fold. On to “PZA with Phe438 mutated to Ala (from UniProt Q9QWY8 325-724) (domain or fragment)”, for which the ArfGAP activity (C50: concentration of PZA for 50% GTP hydrolysis in 3 min), fold reduction against wild type in assay [1] was 15 fold.

For the substance “ΔN14 PZA (PZA without residues 325–338) (from UniProt Q9QWY8 339-724) (domain or fragment)”, the GAP activity relative to wt PZA (fold of wt PZA) in assay [4] is under 0.01.
